Source: paper PMC3977044
Read-outs that look alike come from different tables or passages of the source.

Columns and labels:
[1] = target: Mos1 transposase D284A (with T216A), catalytically inactive mutant (Drosophila mauritiana); test: SEC
[2] = target: Mos1 transposase R48Q/Q100R (with T216A), DNA binding deficient mutant (Drosophila mauritiana); test: SEC
[3] = target: Mos1 transposase R48Q/Q100R D284A (with T216A), DNA binding and catalytically inactive mutant (Drosophila mauritiana); test: SEC
[4] = target: T1, Mos1 transposase R48Q/Q100R (Drosophila mauritiana (mariner Mos1), UniProt Q7JQ07 1-345, R48Q;Q100R;T216A); test: EMSA
T1 sequence: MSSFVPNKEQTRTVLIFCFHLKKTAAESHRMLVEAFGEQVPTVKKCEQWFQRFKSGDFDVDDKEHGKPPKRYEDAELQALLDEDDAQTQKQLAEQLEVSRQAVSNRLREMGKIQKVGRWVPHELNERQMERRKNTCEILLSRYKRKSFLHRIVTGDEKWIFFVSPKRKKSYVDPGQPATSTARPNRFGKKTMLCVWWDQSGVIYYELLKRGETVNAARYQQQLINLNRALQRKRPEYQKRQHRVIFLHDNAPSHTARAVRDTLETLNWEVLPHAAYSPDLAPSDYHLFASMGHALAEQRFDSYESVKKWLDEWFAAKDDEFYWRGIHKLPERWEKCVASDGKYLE

[5] = target: T2, Mos1 transposase T216A (Drosophila mauritiana (mariner Mos1), UniProt Q7JQ07 1-345, T216A); test: X-ray crystallography
T2 sequence: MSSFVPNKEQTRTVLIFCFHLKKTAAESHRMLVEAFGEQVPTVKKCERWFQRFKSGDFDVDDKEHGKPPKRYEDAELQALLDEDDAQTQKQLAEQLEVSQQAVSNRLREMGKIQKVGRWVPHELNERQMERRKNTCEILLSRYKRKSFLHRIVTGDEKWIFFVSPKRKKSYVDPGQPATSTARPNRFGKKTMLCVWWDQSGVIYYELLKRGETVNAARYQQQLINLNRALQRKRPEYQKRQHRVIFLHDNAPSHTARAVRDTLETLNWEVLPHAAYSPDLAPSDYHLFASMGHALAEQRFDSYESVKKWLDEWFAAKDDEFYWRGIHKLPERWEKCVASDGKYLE

[6] = target: T2, Mos1 transposase T216A; test: X-ray crystallography; remark: listed apart in the source

Mos1 transposase D284A (with T216A), catalytically inactive mutant (enzyme)
stoichiometry N [1]: 2

Mos1 transposase R48Q/Q100R (with T216A), DNA binding deficient mutant (enzyme)
stoichiometry N [2]: 2

Mos1 transposase R48Q/Q100R D284A (with T216A), DNA binding and catalytically inactive mutant (enzyme)
stoichiometry N [3]: 2

B1: 100 bp IRR plus flank NTS cleavage substrate (dsDNA)
DNA 1: ACGGGCTCCAGTCGGTGAATATAGAAACTATCAGGTGTACAAGTATGAAATGTCGTTTTTTTTAAATCAAAAAACACGTTAAATTTTGTGGAAAAAGAAA
DNA 2: TTTCTTTTTCCACAAAATTTAACGTGTTTTTTGATTTAAAAAAAACGACATTTCATACTTGTACACCTGATAGTTTCTATATTCACCGACTGGAGCCCGT
binding result [4]: no binding

B2: IRR duplex with 5-iodo-dU at T16 (dsDNA)
DNA 1: AAACGACATTTCATACTTGTACACCTGA
DNA 2: GGTGTACAAGTATGAAATGTCGTTT
modifications: 5-iodo-dU replacing T16 (NTS nucleotide 13 by structure numbering); 5' phosphate on NTS presumed
binding result [5]: binds

B3: pre-cleaved IRR duplex (28 nt TS / 25 nt NTS) (dsDNA)
DNA 1: AAACGACATTTCATACTTGTACACCTGA
DNA 2: GGTGTACAAGTATGAAATGTCGTTT
modifications: 5' phosphate on NTS
binding result [6]: binds
